Here are results for two proteins from doi:10.1101/2022.04.02.486822v1.

Numbering of substitutions follows the chain as printed. In names and notes the source's numbering stands.

Holding throughout (test): purified protein
Settings in all cases: 200 µM NADPH, 50 mM HEPES, pH 7.5, 22 °C

Substrate in data set [1]: N=C(N)NCCCC(=O)C(=O)O
Substrate in data set [2]: O=C(O)CCC(=O)C(=O)O
Substrate in data set [3]: O=C(O)CC(=O)C(=O)O
Substrate in data set [4]: O=CC(=O)O
The data set is classed as biochemical, Escherichia coli.

Substrate in data set [5]: O=CC(=O)O

B1: EcGhrA (Escherichia coli K-12; W45F) (protein)
chain: MDIIFYHPTFDTQWWIEALRKAIPQARVRAWKSGDNDSADYALVFHPPVEMLAGRDLKAVFALGAGVDSILSKLQAHPEMLNPSVPLFRLEDTGMGEQMQEYAVSQVLHWFRRFDDYRIQQNSSHWQPLPEYHREDFTIGILGAGVLGSKVAQSLQTWRFPLRCWSRTRKSWPGVQSFAGREELSAFLSQCRVLINLLPNTPETVGIINQQLLEKLPDGAYLLNLARGVHVVEDDLLAALDSGKVKGAMLDVFNREPLPPESPLWQHPRVTITPHVAAITRPAEAVEYISRTIAQLEKGERVCGQVDRARGY
The term Km denotes the substrate concentration at which the rate is half of its maximum. One may read the kcat as the number of substrate molecules converted per active site and unit of time at saturation. In the case of B1, the Michaelis constant (Km) in “purified protein [1]” worked out at 43.2 ± 8.4 mM; in the data set “purified protein [2]”, 11.5 ± 0.8 mM; in the data set “purified protein [3]” it was 6.3 ± 0.2 mM; in “purified protein [4]”, 10.8 ± 6.1 mM. Further, the kcat in “purified protein [1]” turned out to be 4.0 ± 0.7 s⁻¹; in “purified protein [2]”, 0.26 ± 0.01 s⁻¹; in “purified protein [3]” it was 1.8 ± 0.04 s⁻¹; in “purified protein [4]”, 120.0 ± 63.0 s⁻¹.

B2: EcGhrA (Escherichia coli K-12) (protein)
chain: B1 chain with F45W
Take B2: the Michaelis constant (Km) in the data set “purified protein [5]” was 2.2 ± 1.7 mM; in the data set “purified protein [1]”, 8.8 ± 0.8 mM; in the data set “purified protein [2]” it was 4.0 ± 0.4 mM; in the data set “purified protein [3]”, 1.3 ± 0.2 mM. For the same protein, the kcat worked out at 40.0 ± 23.0 s⁻¹ in the data set “purified protein [5]”, 6.6 ± 0.4 s⁻¹ in the data set “purified protein [1]”, 0.30 ± 0.02 s⁻¹ in the data set “purified protein [2]” and 1.9 ± 0.1 s⁻¹ in “purified protein [3]”.
